Results from patent US20230076637A1 (AJOU UNIVERSITY INDUSTRY ACADEMIC COOPERATION FOUNDATION, published 2023).

Columns and labels:
[1] = molecular target: T1, CMVp495-503/HLA-A*02:01 complex (cytomegalovirus (CMV); human); assay: flow cytometry, cancer cells pulsed with CMVp495-503 peptide, anti-mouse Fc secondary
T1 construct: whole, on cells; also called CMV peptide-MHC-I complex
Procedure: A negative control group not treated with peptide was added with DMSO. After 3 hours, centrifugation was performed at 1300 rpm for 3 minutes to remove the supernatant containing the peptide not bound to the cells, and the cells were washed with a FACS buffer and centrifuged at 1300 rpm for 3 minutes to remove the supernatant. […] After each sample was washed with 1 ml of a FACS buffer, a F(ab′)₂ antibody that specifically recognizes Alexa647 (red fluorescence)-conjugated mouse Fc was diluted 1:1200 in 100 μl of a FACS buffer, followed by reaction at 4° C. for 30 minutes. The cells were washed with 1 ml of a FACS buffer and then analyzed through flow cytometry.

[2] = molecular target: T2, HLA-A*02:01 expressed on the surface of cancer cells (human); assay: summary table, column MHC-1 display at 4 C
T2 construct: whole, on cells; also called cell-surface HLA-A*02:01; HLA-A2

[3] = molecular target: T2, HLA-A*02:01 expressed on the surface of …; assay: flow cytometry, MDA-MB-231 cells (4 °C scheme of FIG. 9a), detection with C1-17

B1: H9#1 TCR-like antibody (antibody, mouse IgG2a, kappa, V domains shown)
VH: EVQLVQSGAEVKKPGSSVKVSCKASGGTFSSYAISWVRQAPGQGLEWMGGIIPIFGTANYAQKFQGRVTITADESTSTAYMELSSLRSEDTAVYYCARGDLYYYDSSGYPLWYMDYWGQGTLVTVSS
VL: ETTLTQSPGTLSLSPGERATLSCRASQSVSSSYLAWYQQKPGQAPRLVIYGASSRATGIPDRFSGSGSGTDFTLTISRLEPEDFAVYYCQDYSTYPAFTFGQGTKLEIRR
binding result [1]: binds

B2: H9 TCR-like antibody (antibody, mouse IgG2a, kappa, V domains shown)
VH: EVQLVQSGAEVKKPGSSVKVSCKASGGTFSSYAISWVRQAPGQGLEWMGGIIPIFGTANYAQKFQGRVTITADESTSTAYMELSSLRSEDTAVYYCARGDLYYYDSSGYPRYYFDYWGQGTLVTVSS
VL: ETTLTQSPGTLSLSPGERATLSCRASQSVSSSYLAWYQQKPGQAPRLVIYGASSRATGIPDRFSGSGSGTDFTLTISRLEPEDFAVYYCQHYSTSPGFTFGQGTKLEIRR
binding result [1]: binds

B3: C1-17 TCR-like antibody (antibody, mouse IgG2a, kappa, V domains shown)
VH: EVQLVQSGAEVKKPGSSVKVSCKASGGTFSSYAISWVRQAPGQGLEWMGSIIPIFGVAEYAHKFQGRVTITADESTSTAYMELSSLRSEDTAVYYCARGDLYYYDSSGYPLWYMDYWGQGTLVTVSS
VL: ETTLTQSPGTLSLSPGERATLSCRASQSVSSSYLAWYQQKPGQAPRLVIYGASTRPTGIPDRFSGSGSGTDFTLTISRLEPEDFAVYYCQDYSTYPAFTFGQGTKLEIRR
binding result [1]: binds

B4: inCT99†CMVp480-503 fusion antibody (antibody)
heavy: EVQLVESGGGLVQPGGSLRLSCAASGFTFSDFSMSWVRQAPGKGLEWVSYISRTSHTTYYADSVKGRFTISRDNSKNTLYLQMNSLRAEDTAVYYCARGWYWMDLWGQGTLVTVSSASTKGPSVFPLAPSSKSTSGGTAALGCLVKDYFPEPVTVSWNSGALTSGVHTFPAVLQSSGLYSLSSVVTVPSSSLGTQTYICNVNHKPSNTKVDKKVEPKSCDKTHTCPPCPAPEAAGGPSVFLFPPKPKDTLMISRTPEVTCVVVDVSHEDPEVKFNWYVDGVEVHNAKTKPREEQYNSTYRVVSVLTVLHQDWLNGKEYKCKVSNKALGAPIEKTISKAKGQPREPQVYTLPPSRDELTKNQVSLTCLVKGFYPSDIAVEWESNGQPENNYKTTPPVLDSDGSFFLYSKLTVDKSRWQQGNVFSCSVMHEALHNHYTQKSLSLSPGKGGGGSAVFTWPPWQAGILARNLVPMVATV
light: SDGVRQCRGDCFDGPLMGSSSNDIQMTQSPSSLSASVGDRVTITCKSSQSLLNSRDGKNYLAWYQQKPGKAPKLLIYDASNLETGVPSRFSGSGSGTDFTFTISSLQPEDIATYFCQQYWYWMYTFGGGTKVEIKRTVAAPSVFIFPPSDEQLKSGTASVVCLLNNFYPREAKVQWKVDNALQSGNSQESVTEQDSKDSTYSLSSTLTLSKADYEKHKVYACEVTHQGLSSPVTKSFNRGEC
binding result [2]: binds

B5: inCT99†CMVp480-510 fusion antibody (antibody)
heavy: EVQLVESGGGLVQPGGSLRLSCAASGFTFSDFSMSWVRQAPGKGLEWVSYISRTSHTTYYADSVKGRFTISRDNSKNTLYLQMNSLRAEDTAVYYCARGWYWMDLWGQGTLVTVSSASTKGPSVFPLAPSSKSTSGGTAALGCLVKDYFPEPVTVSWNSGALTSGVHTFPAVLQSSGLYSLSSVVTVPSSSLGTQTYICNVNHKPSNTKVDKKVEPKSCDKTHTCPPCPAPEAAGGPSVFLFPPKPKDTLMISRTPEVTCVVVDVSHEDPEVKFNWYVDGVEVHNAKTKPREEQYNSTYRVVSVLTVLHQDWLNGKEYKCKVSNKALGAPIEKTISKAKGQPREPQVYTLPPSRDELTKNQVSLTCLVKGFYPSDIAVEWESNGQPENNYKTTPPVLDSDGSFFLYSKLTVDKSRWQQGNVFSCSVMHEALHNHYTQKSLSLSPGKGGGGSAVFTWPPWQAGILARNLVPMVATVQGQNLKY
light: SDGVRQCRGDCFDGPLMGSSSNDIQMTQSPSSLSASVGDRVTITCKSSQSLLNSRDGKNYLAWYQQKPGKAPKLLIYDASNLETGVPSRFSGSGSGTDFTFTISSLQPEDIATYFCQQYWYWMYTFGGGTKVEIKRTVAAPSVFIFPPSDEQLKSGTASVVCLLNNFYPREAKVQWKVDNALQSGNSQESVTEQDSKDSTYSLSSTLTLSKADYEKHKVYACEVTHQGLSSPVTKSFNRGEC
binding result [3]: no binding
